Results published in the RNAGym collection of RNA variant scans (doi:10.1073/pnas.2313332121).

B1: TPR t1 (parent)
chain: GACCAAUCUGCCCUCAGAGCUCGAGAACAUCUUCGGAUGCAGAGGAGGCAGGCUUCGGUGGCGCGAUAGCGCCAACGUCCUCAACCUCCAAUGCAUCCCACCACAUGAUGAUGCCUGAAGAGCCUUGGUUUUUUG

Variants of: B1
Test: polymerase ribozyme fitness, log enrichment relative to wild type (log ratio); higher = more active; in vitro selection for triplet polymerase activity
Outline: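 PCR was used to build mutant libraries for each subunit of a heterodimeric triplet polymerase ribozyme, which were then transcribed. A single in vitro selection round, in triplicate, used a frozen incubation at −7 °C and recovered extended constructs by gel excision, streptavidin beads and RT-PCR. Fitness is the logarithm of genotype enrichment relative to wild-type enrichment, averaged over replicates with inverse-variance weights. The logarithm is base 2, and after Illumina sequencing only genotypes with ≥10 input reads and ≥1 read per output were kept.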

Variant | polymerase ribozyme fitness (log ratio)
C22A C101U U106C | -5.01
C34U U106C | -3.99
U78C A118U | 0.929
C28U A43G G69U G113A | -1.82
G19U G122U C123A U129A | -4.23
C49A G93C U112A | 0.173
C12A G61U C104U A108C A121U | -3.79
G45A A84C G120C G135A | 0.21
C49U U132A | -0.342
C28U G60A | -2.05
C13U G36A C88U | -0.556
A27U A46C U116C | -6.31
G10A G42U | -1.32
U14C A46U C62U U125A | -3.37
A29U C56G C85A | -4.99
A84G A118G | -0.615
G63U U92G G93C C98G A121G | -5.9
C13U A37U C64G G93C A105U G110U U129G | -7.07
G44C U54A G61U C85U U87A C102A | -4.76
A43G A100U | -2.72
A29U A46G U125A | -2.44
C62A U130G U133A | -1.17
G10A A68G U112C | -1.25
C53G G63A A95G G110A U125C | -4.78

Variant | polymerase ribozyme fitness (log ratio)
C34A C101U C104U U133A | -1.95
A16G C76G G120A | -2.25
C11U C79G U92G | -6.09
C13G C82A C102A U130G | -4.93
A41G G47U G120A | -3.73
G42A C64U C115A A119U | -3.76
C22G G48C G77A C85G U112G | -3.5
C40U U55C C72U U96C A100C A119U G127U | -4.37
A43U A46G C62G | -4.27
U14A C31U U87C U112G | -6.24
G47A C114A C123G U125A | -2.46
C40U C53A G113C | -2.73
C34U G122U | -3.58
G71U U87C | -0.194
C70A A84U | -0.795
C11U C101A | -1.8
C56U A83G | -0.676
C34G U55C G58A C82A C85U C88A C123U U131G | -6.74
C11G C94U | -0.128
C80U C102A U106A U112A | -4.1
G52U C53G G60C C80A C94U | -2.08
G10U A43G G47A A74G | -3.06
G36A C94A | -2.77
G45U C72U G120A | -0.418

Variant | polymerase ribozyme fitness (log ratio)
G63A C97U C115A | -0.416
G60U G110A | -1
C22A C53G | -5
G71U C101U U130G | -0.458
C114A U129C | -1.63
C62U U81G A83U C89U G117U | -5.98
C114A C123U | -3.16
C97G C115G | -3.69
C88G G117C U133A | -3.79
A16U A43U U112C | -1.59
G63C C97A G120C U126A | -6.28
G69C U92A | -5.61
U9G C12A G57U A111U C114A U133A | -5.59
G69U C104G | -4.34
C62U U81C C101U | -0.199
G45U C104U C124A | -1.14
U9G C70U | -0.679
A18U G48U C64U C88U | -2.9
G42U G63U | -3.48
A24C C73A | -6.46
C15A C88U C123U | -1.37
U32C A90G C97A U130G | -5.05
C64U C88U | -0.605
C15U G42C C76U U106A | -4.25

Variant | polymerase ribozyme fitness (log ratio)
A16G G93A U109G | -5.43
C12G A18U G39A G52A G60A C82U U106G G120A | -3.95
C28G G45U G52A G107C U109A C124A | -5.94
U14G C20U C22G G23C U33C U38G C62U U112C A118G G127A | -6.3
G93U U133A | -0.793
C22A C40A C73A C123U | -4.93
G63A U78C | -0.735
A41C G63C | -2.4
C22G G61C A68C C123U | -6.92
C70A C88G U125G | -3.18
A5G A37G C53U A105G U112G U125G G135U | -5.89
G10A C13U U14A G61U C104G | -6.29
U55A G63A U78A | -0.969
A121G G128A | 0.956
A41G G51U C114G | -5.83
G51U G61A | -3.03
A5G C40U G45U A50C U125A | -4.22
C70A C101A | -2.43
C97U U112G | -0.123
C4U G36U | -1.82
C53G G61A C88A A111U U112G C124A | -1
C49U G69A | -3.63
G60U G117A | -0.487
C11A C40G | -3.12

Variant | polymerase ribozyme fitness (log ratio)
G93C G135C | -1.15
G48U A84C C114U U116G U132A | -7.04
C13U U59C C70G | -4.01
C8G U32G C101U C124A | -4.92
G63U C123U | -0.374
G17C U54G C94A U112G | -6.12
G60C C123G | 1.61
C70U C124G | 0.921
G42A U55C | -2.24
C12A G35A C49A | -5.9
A16U C62U C94U | -1.79
A26U G69U C79G | -3.29
C8G G52U | 0.359
A2C C13G A16U | -4.01
G10U A37U G120C U129C | 0.637
C13A G36A C72U A121C G127U | -0.199
G19U G58C | -4.22
A18U C76A | -3.36
A74U G93U G117C | -5.37
G52U C70U | -1.49
C80U C85A | -2.89
G57U C62A G117U | -5.4
A74U C88G U112G U132G G135A | -0.922
C8U C124U | 1.6

Variant | polymerase ribozyme fitness (log ratio)
A2G C12G C20A G69U U78C U130C | -1.63
C79G U96A | -2.96
G17U C34G A50G | -7.24
G10U U14A C53G A95U G120U | 0.647
C13A G61C | -1.81
C28G U54G C62U | -3.83
C53U U81A | -1.63
G107A A119G | -4.92
U7C G39A C115U G128C | -3.58
G39U C49U C56U | -1.53
C4U A43G G47U C53U G61U | -3.38
C12G C13A A50C A119U G127A | -1.75
A43G U109A | -6.81
C11G G48C G110A | -1.89
G45U G61C | -2.72
C53U G93A A105C G117U | -6.56
A18C A41G C101G | -5.9
C73U C86A | -0.276
C4G U9G A41G | -1.21
U54A G61A C124A G128U | -0.356
U112A A121U U125A | 1.36
A24U G61U C88A G117C | -6.74
C3U C49A G120A | -0.42
G17U G71A | -3.25

Variant | polymerase ribozyme fitness (log ratio)
A43U G44A C115A C124A U125C U132A | 0.582
G25C A46G C70U C85G | -6.39
G57A U78G C82G | -0.698
C62G U106A | -1.16
C4G C70G | -3.78
U78G U116C U133A | -0.304
A6U C56U C85A | -2.08
G60C U96A C101A A119U | -4.66
C11G G61A | 1
G52U G60U | -0.578
U55G C73G C123U | 0.666
C12A C64U C115U G120A C123A | -1.16
A37U C53G U116A | -3.56
G36U G58C G71C A91U G120U | -4.22
C15U C22G G61C C114G | -7.09
C49G G60C C86U | -0.802
U9G C40G C94U C123A U125A | -0.873
A26U C62U | -3.59
G71U C79G | -2.2
C20G G51A G61A C85G A121U | -7.66
U55G A74U U81A C85G G122A | -4.4
U9C C15A G45C G57C U59A | 0.541
G77C U125C | -3.91
